The supplement of paper PMC10126150
± gives the standard deviation of the averaged measurements.

system: ATP; assay: switch fluorescence ratio, 500 uM ATP over buffer (Cy3 cluster intensity, sum of 5 cycles each) (fold (ratio)); higher = stronger signal-on switching upon ATP binding; sequences stand for … in TCGTCGGCAGCGTCAGATGTGTATAAGAGACAGTTTTTTTTTTTTTTTTTTTTTTTTT…TC; conditions: aptamer strand: ATP DNA aptamer (quencher-CACCTGGGGGAGTATTGCGGAGGAAGG + anchor), 100 nM annealed; ATP concentration: 500 uM
How it was run: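 Cy3-labelled switching-strand clusters on a modified Illumina MiSeq flow-cell were annealed to 100 nM quencher-labelled ATP aptamer and imaged first in selection buffer, then after 15 min with 500 uM ATP at 22 °C. NaOH stripping and re-annealing separated each of five buffer/ATP cycles, and clusters outside 100-1000 RFU were excluded. The fluorescence ratio sums target-cycle Cy3 intensity over buffer-cycle Cy3 intensity per cluster and averages it per switch-domain sequence.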
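Also: ATP exposure 15 min at 22 °C before imaging.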

| Sequence | switch fluorescence ratio |
| --- | --- |
| TTTTATAGTG | 0.984 ± 0.033 |
| TTTTATATAT | 1.014 ± 0.0079 |
| TTTTATCCA | 1.016 ± 0.0095 |
| TTTTATCCCC | 1.08 ± 0.1 |
| TTTTATGGCA | 1.02 ± 0.021 |
| TTTTATGTGG | 1.01 ± 0.04 |
| TTTTATGTT | 0.978 ± 0.018 |
| TTTTCAAAGC | 1.67 ± 0.84 |
| TTTTCAAGTT | 1.21 ± 0.38 |
| TTTTCAATTG | 1.01 ± 0.027 |
| TTTTCACGGT | 1.01 ± 0.021 |
| TTTTCAGCTG | 1.03 ± 0.016 |
| TTTTCAGTTT | 1.022 ± 0.01 |
| TTTTCATAAC | 1 ± 0.051 |
| TTTTCATTGG | 0.985 ± 0.026 |
| TTTTCATTTG | 1.01 ± 0.034 |
| TTTTCCAGCC | 1.04 ± 0.036 |
| TTTTCCAGGT | 1.83 ± 0.42 |
| TTTTCCATTG | 1.01 ± 0.021 |
| TTTTCCGACA | 2.28 ± 1.5 |
| TTTTCCGCGC | 2.08 ± 0.47 |
| TTTTCCGGTT | 1.23 ± 0.42 |
| TTTTCCGTTC | 1.02 ± 0.021 |
| TTTTCCTCTT | 1.02 ± 0.014 |
| TTTTCGAATT | 0.991 ± 0.015 |
| TTTTCGAGCT | 1.006 ± 0.0095 |

| Sequence | switch fluorescence ratio |
| --- | --- |
| TTTTCGAGGT | 1.17 ± 0.24 |
| TTTTCGCCAC | 2.35 ± 1.3 |
| TTTTCGCTGT | 1.02 ± 0.016 |
| TTTTCGGACA | 1.033 ± 0.0027 |
| TTTTCGGGCG | 0.944 ± 0.017 |
| TTTTCGGTAG | 0.989 ± 0.027 |
| TTTTCGGTCG | 0.999 ± 0.046 |
| TTTTCGTGGC | 0.989 ± 0.1 |
| TTTTCGTTGT | 0.996 ± 0.018 |
| TTTTCTACCC | 1.03 ± 0.059 |
| TTTTCTAGGT | 0.982 ± 0.021 |
| TTTTCTCAGC | 1.05 ± 0.029 |
| TTTTCTCTCA | 1.01 ± 0.02 |
| TTTTCTGACC | 1.02 ± 0.012 |
| TTTTCTGCCT | 1.07 ± 0.089 |
| TTTTCTTTGG | 1.03 ± 0.077 |
| TTTTGAAATA | 0.997 ± 0.017 |
| TTTTGAACGC | 1.065 ± 0.0016 |
| TTTTGAAGTC | 1.03 ± 0.092 |
| TTTTGAGACT | 0.96 ± 0.0084 |
| TTTTGAGAGA | 1.11 ± 0.25 |
| TTTTGAGAGG | 0.983 ± 0.036 |
| TTTTGAGATT | 0.995 ± 0.011 |
| TTTTGAGCGG | 1.04 ± 0.015 |
| TTTTGAGTCG | 1.01 ± 0.033 |
| TTTTGAGTTC | 1.035 ± 0.0057 |

| Sequence | switch fluorescence ratio |
| --- | --- |
| TTTTGATACG | 0.996 ± 0.041 |
| TTTTGATCAT | 0.98 ± 0.013 |
| TTTTGATCGT | 0.962 ± 0.023 |
| TTTTGATGAC | 1.01 ± 0.047 |
| TTTTGATTAT | 0.978 ± 0.034 |
| TTTTGCACCG | 1.02 ± 0.053 |
| TTTTGCCAGT | 1.11 ± 0.23 |
| TTTTGCCGAT | 0.989 ± 0.023 |
| TTTTGCCTTA | 1.007 ± 0.0063 |
| TTTTGCGAAT | 0.996 ± 0.018 |
| TTTTGCGGCG | 1.25 ± 0.29 |
| TTTTGCGGTG | 1.01 ± 0.017 |
| TTTTGCGTTT | 0.992 ± 0.07 |
| TTTTGCTATT | 1.03 ± 0.013 |
| TTTTGGACAT | 0.993 ± 0.029 |
| TTTTGGAGAA | 1.02 ± 0.037 |
| TTTTGGAGAT | 1.01 ± 0.027 |
| TTTTGGAGGA | 1.02 ± 0.019 |
| TTTTGGAGTT | 0.998 ± 0.035 |
| TTTTGGATCG | 1 ± 0.012 |
| TTTTGGATTT | 0.993 ± 0.018 |
| TTTTGGCAGG | 1.03 ± 0.037 |
| TTTTGGCAGT | 1.09 ± 0.013 |
| TTTTGGCCAT | 0.995 ± 0.082 |
| TTTTGGCCTA | 1.01 ± 0.029 |
| TTTTGGCGGC | 0.9504 ± 0.0056 |

| Sequence | switch fluorescence ratio |
| --- | --- |
| TTTTGGCTTG | 0.9884 ± 0.0012 |
| TTTTGGGACC | 0.992 ± 0.037 |
| TTTTGGGATA | 1.03 ± 0.025 |
| TTTTGGGATC | 0.996 ± 0.016 |
| TTTTGGGCCA | 1.04 ± 0.018 |
| TTTTGGGGAG | 1.02 ± 0.029 |
| TTTTGGGGAT | 1.01 ± 0.026 |
| TTTTGGGGGT | 1.03 ± 0.096 |
| TTTTGGTAAT | 1.01 ± 0.014 |
| TTTTGGTGAG | 0.972 ± 0.025 |
| TTTTGGTGGG | 0.9972 ± 0.0074 |
| TTTTGGTTAT | 1.01 ± 0.03 |
| TTTTGTAAGG | 1.011 ± 0.0043 |
| TTTTGTATCG | 0.948 ± 0.052 |
| TTTTGTCAAG | 1.01 ± 0.033 |
| TTTTGTCAAT | 1.1 ± 0.13 |
| TTTTGTCGGT | 0.9667 ± 0.0042 |
| TTTTGTGGAA | 0.998 ± 0.027 |
| TTTTGTGGGA | 1.01 ± 0.031 |
| TTTTGTGGTT | 1.02 ± 0.065 |
| TTTTGTGTTA | 0.997 ± 0.033 |
| TTTTGTTATG | 0.9903 ± 0.0085 |
| TTTTGTTCGG | 0.99 ± 0.029 |
| TTTTGTTGGG | 0.991 ± 0.03 |
| TTTTGTTGTA | 0.996 ± 0.024 |
| TTTTGTTGTT | 0.995 ± 0.035 |

| Sequence | switch fluorescence ratio |
| --- | --- |
| TTTTGTTTAT | 1.01 ± 0.058 |
| TTTTGTTTCT | 0.992 ± 0.027 |
| TTTTGTTTTA | 1 ± 0.015 |
| TTTTTAAAAA | 1.01 ± 0.059 |
| TTTTTAAAGC | 0.995 ± 0.038 |
| TTTTTAACGG | 1.01 ± 0.024 |
| TTTTTAAGCA | 1.02 ± 0.034 |
| TTTTTAAGGC | 1.02 ± 0.032 |
| TTTTTAAGTC | 0.985 ± 0.026 |
| TTTTTAATCC | 1.05 ± 0.017 |
| TTTTTACATC | 1 ± 0.021 |
| TTTTTACCCT | 1.08 ± 0.067 |
| TTTTTACGGA | 1.02 ± 0.043 |
| TTTTTACGGG | 1.02 ± 0.043 |
| TTTTTACTGC | 0.997 ± 0.029 |
| TTTTTAGAAT | 0.993 ± 0.027 |
| TTTTTAGAGT | 0.985 ± 0.026 |
| TTTTTAGCGT | 0.995 ± 0.027 |
| TTTTTAGGAG | 1 ± 0.035 |
| TTTTTAGGTC | 1.1 ± 0.21 |
| TTTTTAGGTG | 1.27 ± 0.2 |
| TTTTTAGTAG | 1.01 ± 0.03 |
| TTTTTATATG | 0.999 ± 0.02 |
| TTTTTATCAA | 1.01 ± 0.041 |
| TTTTTATCGG | 1.01 ± 0.024 |
| TTTTTATTGG | 0.985 ± 0.025 |

| Sequence | switch fluorescence ratio |
| --- | --- |
| TTTTTATTTC | 1 ± 0.019 |
| TTTTTATTTT | 1.01 ± 0.074 |
| TTTTTCAACT | 1.03 ± 0.036 |
| TTTTTCAGGA | 0.975 ± 0.024 |
| TTTTTCAGGC | 0.969 ± 0.055 |
| TTTTTCATAA | 0.999 ± 0.027 |
| TTTTTCATCC | 1.18 ± 0.31 |
| TTTTTCATTT | 1.01 ± 0.023 |
| TTTTTCCAAC | 1.02 ± 0.012 |
| TTTTTCCCGC | 1.07 ± 0.053 |
| TTTTTCCTCT | 1.036 ± 0.0026 |
| TTTTTCGGCA | 1.31 ± 0.43 |
| TTTTTCTCAG | 1.01 ± 0.031 |
| TTTTTCTGGG | 0.977 ± 0.0099 |
| TTTTTCTTGT | 1.01 ± 0.047 |
| TTTTTCTTTT | 0.993 ± 0.029 |
| TTTTTGACTG | 0.994 ± 0.075 |
| TTTTTGAGAT | 0.994 ± 0.03 |
| TTTTTGAGCG | 1.04 ± 0.0024 |
| TTTTTGATGT | 0.994 ± 0.022 |
| TTTTTGCGGC | 0.999 ± 0.03 |
| TTTTTGCTGC | 0.999 ± 0.024 |
| TTTTTGGAGA | 0.994 ± 0.025 |
